In patent publication US20220177594A1:
Where a chain is given by its changes, count along the chain named.

B1: CAN_19F07_1.1 (antibody)
heavy: EVQLVESGGDLVKPGGSLRLSCVASGFTFSDYYMAWVRQAPGKGLQWVANINYDGSSTYYLDSLKSRFTISRDNAKNTLYLQMNSLRAEDTAMYYCVRGLTWDFDVWGQGTLVTVSSASTTAPSVFPLAPSCGSTSGSTVALACLVSGYFPEPVTVSWNSGSLTSGVHTFPSVLQSSGLYSLSSMVTVPSSRWPSETFTCNVAHPASKTKVDKPVPKRENGRVPRPPDCPKCPAPEMLGGPSVFIFPPKPKDTLLIARTPEVTCVVVDLDPEDPEVQISWFVDGKQMQTAKTQPREEQFNGTYRVVSVLPIGHQDWLKGKQFTCKVNNKALPSPIERTISKARGQAHQPSVYVLPPSREELSKNTVSLTCLIKDFFPPDIDVEWQSNGQQEPESKYRTTPPQLDEDGSYFLYSKLSVDKSRWQRGDTFICAVMHEALHNHYTQESLSHSPGK
light: EIVMTQSPASLSLSQEEKVTITCKASQDVDTAVAWYQQKPGQAPKLLIYLASTRHTGVPSRFSGSGSGTDFSFTISSLEPEDVAVYYCQQYSRFPLTFGQGTRNDAQPAVYLFQPSPDQLHTGSASVVCLLNSFYPKDINVKWKVDGVIQDTGIQESVTEQDKDSTYSLSSTLTMSSTEYLSHELYSCEITHKSLPSTLIKSFQRSEC
B2: CAN_19F07_2.1 (antibody)
heavy: B1 heavy with G15A, R19T, V23L, A40T, G42E, A88D, M93V, V97A
light: B1 light
B3: CAN_19F07_2.2 (antibody)
heavy: B1 heavy with G15A, R19T, V23L, A40T, G42E, A88D, M93V, V97A
light: DIVMTQTPLSLSVSPGETASISCKASQDVDTAVAWFRQKPGQSPQRLIYLASTRHTGVPDRFSGSGSGTDFTLRISRVEADDTGVYYCQQYSRFPLTFGQGTRNDAQPAVYLFQPSPDQLHTGSASVVCLLNSFYPKDINVKWKVDGVIQDTGIQESVTEQDKDSTYSLSSTLTMSSTEYLSHELYSCEITHKSLPSTLIKSFQRSEC
B4: FEL_10F07_2.2 (antibody)
heavy: DVQLVESGGDLVKPGGSLRLTCVASGFTFSSYAMSWVRQAPGKGLQWVAYISSGGDYFYYADTVKGRFTISRDDAKNTLYLQMSSLKTEDTATYYCTGDPITGTFAYWGQGTLVTVSSASTTAPSVFPLAPSCGTTSGATVALACLVLGYFPEPVTVSWNSGALTSGVHTFPAVLQASGLYSLSSMVTVPSSRWLSDTFTCNVAHPPSNTKVDKTVRKTDHPPGPKPCDCPKCPPPEAAGAPSIFIFPPKPKDTLSISRTPEVTCLVVDLGPDDSDVQITWFVDNTQVYTAKTSPREEQFNSTYRVVSVLPILHQDWLKGKEFKCKVNSKSLPSPIERTISKAKGQPHEPQVYVLPPAQEELSRNKVSVTCLIKSFHPPDIAVEWEITGQPEPENNYRTTPPQLDSDGTYFVYSKLSVDRSHWQRGNTYTCSVSHEALHSHHTQKSLTQSPGK
light: DITMTQSPGSLAGSPGQQVTMNCRASQDITNYLNWYQQKPGQHPKLLIYYTSTLHSGVPDRFSGSGSGTDFTLTISNLQAEDVASYYCQQGHMLPWTFGQGTRSDAQPSVFLFQPSLDELHTGSASIVCILNDFYPKEVNVKWKVDGVVQNKGIQESTTEQNSKDSTYSLSSTLTMSSTEYQSHEKFSCEVTHKSLASTLVKSFQRSECQRE
B5: FEL_09E09_1.1 (antibody)
heavy: B4 heavy with F29Y, F58I, D74N, S84N, T97V, G98R
light: EIQMTQSPSSLSASPGDRVTITCRASQDINNYLNWYQQKPGKVPKLLIYYTSTLHSGVPSRFSGSGSGTDFTLTISSLEPEDAATYYCQQGNTLPWTFGQGTRSDAQPSVFLFQPSLDELHTGSASIVCILNDFYPKEVNVKWKVDGVVQNKGIQESTTEQNSKDSTYSLSSTLTMSSTEYQSHEKFSCEVTHKSLASTLVKSFQRSECQRE
B6: FEL_19F07_1.1 (antibody)
heavy: DVQLVESGGDLVKPGGSLRLTCVASGFTYSDYYMAWVRQAPGKGLQWVANINYDGSSTYYLDSLKSRFTISRDNAKNTLYLQMNSLKTEDTATYYCVRGLTWDFDVWGQGTLVTVSSASTTAPSVFPLAPSCGTTSGATVALACLVLGYFPEPVTVSWNSGALTSGVHTFPAVLQASGLYSLSSMVTVPSSRWLSDTFTCNVAHPPSNTKVDKTVRKTDHPPGPKPCDCPKCPPPEAAGAPSIFIFPPKPKDTLSISRTPEVTCLVVDLGPDDSDVQITWFVDNTQVYTAKTSPREEQFNSTYRVVSVLPILHQDWLKGKEFKCKVNSKSLPSPIERTISKAKGQPHEPQVYVLPPAQEELSRNKVSVTCLIKSFHPPDIAVEWEITGQPEPENNYRTTPPQLDSDGTYFVYSKLSVDRSHWQRGNTYTCSVSHEALHSHHTQKSLTQSPGK
light: EIQMTQSPSSLSASPGDRVTITCKASQDVDTAVAWYQQKPGKVPKLLIYLASTRHTGVPSRFSGSGSGTDFTLTISSLEPEDAATYYCQQYSRFPLTFGQGTRSDAQPSVFLFQPSLDELHTGSASIVCILNDFYPKEVNVKWKVDGVVQNKGIQESTTEQNSKDSTYSLSSTLTMSSTEYQSHEKFSCEVTHKSLASTLVKSFQRSECQRE
B7: FEL_19F07_2.2 (antibody)
heavy: B6 heavy with D10N, Y29F, V97A
light: DITMTQSPGSLAGSPGQQVTMNCKASQDVDTAVAWYQQKPGQHPKLLIYLASTRHTGVPDRFSGSGSGTDFTLTISNLQAEDVASYYCQQYSRFPLTFGQGTRSDAQPSVFLFQPSLDELHTGSASIVCILNDFYPKEVNVKWKVDGVVQNKGIQESTTEQNSKDSTYSLSSTLTMSSTEYQSHEKFSCEVTHKSLASTLVKSFQRSECQRE
B8: FEL_19F07_1.2 (antibody)
heavy: B6 heavy
light: B7 light
B9: FEL_19F07_2.1 (antibody)
heavy: B6 heavy with D10N, Y29F, V97A
light: B6 light
B10: Canine_OSM (ligand)
chain: SCSDKYPELLGQLQKQADFMQHTNTLLDLYIRSQGLDKNGLKEHCRERPGAFPSKDALQRLSRRVFLRTLDTTLGQVLLRLAALEQDIPKAQDLEMLSGVKLNIRGFKNNIHCMAQLLPGSSETTEPTPTSPGASPSPTPTLDTFQRRLEGCRFLHGYHRFMRSVGQVFREWGKSLSRSRR
B11: CAN_09E09_1.2 (antibody)
heavy: EVQLVESGGDLVKPGGSLRLSCVASGFTFSSYAMSWVRQAPGKGLQWVAYISSGGDYIYYADTVKGRFTISRDNAKNTLYLQMNSLRAEDTAMYYCVRDPITGTFAYWGQGTLVTVSSASTTAPSVFPLAPSCGSTSGSTVALACLVSGYFPEPVTVSWNSGSLTSGVHTFPSVLQSSGLYSLSSMVTVPSSRWPSETFTCNVAHPASKTKVDKPVPKRENGRVPRPPDCPKCPAPEMLGGPSVFIFPPKPKDTLLIARTPEVTCVVVDLDPEDPEVQISWFVDGKQMQTAKTQPREEQFNGTYRVVSVLPIGHQDWLKGKQFTCKVNNKALPSPIERTISKARGQAHQPSVYVLPPSREELSKNTVSLTCLIKDFFPPDIDVEWQSNGQQEPESKYRTTPPQLDEDGSYFLYSKLSVDKSRWQRGDTFICAVMHEALHNHYTQESLSHSPGK
light: DIVLTQPTSVSGSLGQRVTISCRASQDINNYLNWYQQLPGKAPKLLVYYTSTLHSGVPDRFSGSNSGSSATLTITGLQAEDEADYYCQQGNTLPWTFGQGTRNDAQPAVYLFQPSPDQLHTGSASVVCLLNSFYPKDINVKWKVDGVIQDTGIQESVTEQDKDSTYSLSSTLTMSSTEYLSHELYSCEITHKSLPSTLIKSFQRSEC

Columns and labels:
[1] = target: Canine_OSMR_hlgG1_Fc (canine); test: SPR Biacore
[2] = target: Feline_OSMR_hlgG1_Fc (feline); test: SPR Biacore
Feline_OSMR_hlgG1_Fc (feline), sequence (chain, as listed by the source limits assumed, form in doubt): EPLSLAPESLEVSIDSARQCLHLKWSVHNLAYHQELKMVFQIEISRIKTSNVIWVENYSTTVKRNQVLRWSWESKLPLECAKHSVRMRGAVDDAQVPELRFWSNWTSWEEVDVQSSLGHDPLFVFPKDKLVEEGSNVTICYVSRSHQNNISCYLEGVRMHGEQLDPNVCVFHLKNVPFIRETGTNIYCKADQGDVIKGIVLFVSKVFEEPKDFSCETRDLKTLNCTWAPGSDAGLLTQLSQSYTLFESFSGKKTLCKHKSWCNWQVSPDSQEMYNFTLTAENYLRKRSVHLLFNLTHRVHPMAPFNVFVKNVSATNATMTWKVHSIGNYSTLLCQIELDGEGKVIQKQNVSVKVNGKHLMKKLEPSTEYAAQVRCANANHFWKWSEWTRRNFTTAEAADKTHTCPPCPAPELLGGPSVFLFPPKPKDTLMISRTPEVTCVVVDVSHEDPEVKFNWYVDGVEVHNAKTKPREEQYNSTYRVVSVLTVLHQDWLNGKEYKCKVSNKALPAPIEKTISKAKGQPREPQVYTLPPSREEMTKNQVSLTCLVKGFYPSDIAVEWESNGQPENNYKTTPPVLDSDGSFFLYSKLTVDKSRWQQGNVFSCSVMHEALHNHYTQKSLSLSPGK

Canine_OSMR_hlgG1_Fc (canine), sequence (chain, as listed by the source limits assumed, form in doubt): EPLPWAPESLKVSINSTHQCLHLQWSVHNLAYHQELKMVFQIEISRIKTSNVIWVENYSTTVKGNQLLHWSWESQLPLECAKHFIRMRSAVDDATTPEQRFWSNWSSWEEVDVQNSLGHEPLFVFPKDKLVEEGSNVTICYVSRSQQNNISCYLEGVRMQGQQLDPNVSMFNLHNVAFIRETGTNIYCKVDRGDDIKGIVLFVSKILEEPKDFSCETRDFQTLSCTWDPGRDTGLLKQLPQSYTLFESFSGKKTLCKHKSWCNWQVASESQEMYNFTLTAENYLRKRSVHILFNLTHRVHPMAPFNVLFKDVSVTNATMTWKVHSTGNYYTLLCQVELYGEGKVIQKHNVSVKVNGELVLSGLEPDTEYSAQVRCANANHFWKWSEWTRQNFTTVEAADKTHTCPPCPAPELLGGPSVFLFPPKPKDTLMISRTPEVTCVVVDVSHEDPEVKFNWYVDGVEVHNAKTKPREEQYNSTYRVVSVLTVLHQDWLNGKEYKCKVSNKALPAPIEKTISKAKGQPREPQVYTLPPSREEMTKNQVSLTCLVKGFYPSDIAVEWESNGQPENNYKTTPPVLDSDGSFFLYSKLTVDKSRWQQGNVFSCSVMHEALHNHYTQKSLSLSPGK

Binder	Kd [1] [nM]	koff [1] [s⁻¹]	kon [1] [M⁻¹ s⁻¹]	Kd [2] [nM]	koff [2] [s⁻¹]	kon [2] [M⁻¹ s⁻¹]
B1	9.13	0.000334	36600	0.32	3.55e-05	111000
B2	8.3	0.00022	26400	0.198	1.12e-05	56700
B3				24	0.00113	47000
B4	4.99	0.000903	181000	1.21	0.000457	376000
B5	18.2	0.00105	57500	7.73	0.000979	127000
B6	10.3	0.000294	28500	0.783	6.37e-05	81300
B7	4.4	0.000215	48800	0.00332	5.62e-07	169000
B8	31	0.000327	10500	0.435	1.95e-05	44700
B9				0.108	4.07e-07	3790
B10	43.6	0.003	68700	41.1	0.00423	103000
B11	37.7	0.00108	28600	11	0.00184	167000
